{"source": "paper PMC9163039", "target": "mRuby2-Tau (human Tau full length) (human) (UniProt P10636)", "sequence (P10636 2-758)": "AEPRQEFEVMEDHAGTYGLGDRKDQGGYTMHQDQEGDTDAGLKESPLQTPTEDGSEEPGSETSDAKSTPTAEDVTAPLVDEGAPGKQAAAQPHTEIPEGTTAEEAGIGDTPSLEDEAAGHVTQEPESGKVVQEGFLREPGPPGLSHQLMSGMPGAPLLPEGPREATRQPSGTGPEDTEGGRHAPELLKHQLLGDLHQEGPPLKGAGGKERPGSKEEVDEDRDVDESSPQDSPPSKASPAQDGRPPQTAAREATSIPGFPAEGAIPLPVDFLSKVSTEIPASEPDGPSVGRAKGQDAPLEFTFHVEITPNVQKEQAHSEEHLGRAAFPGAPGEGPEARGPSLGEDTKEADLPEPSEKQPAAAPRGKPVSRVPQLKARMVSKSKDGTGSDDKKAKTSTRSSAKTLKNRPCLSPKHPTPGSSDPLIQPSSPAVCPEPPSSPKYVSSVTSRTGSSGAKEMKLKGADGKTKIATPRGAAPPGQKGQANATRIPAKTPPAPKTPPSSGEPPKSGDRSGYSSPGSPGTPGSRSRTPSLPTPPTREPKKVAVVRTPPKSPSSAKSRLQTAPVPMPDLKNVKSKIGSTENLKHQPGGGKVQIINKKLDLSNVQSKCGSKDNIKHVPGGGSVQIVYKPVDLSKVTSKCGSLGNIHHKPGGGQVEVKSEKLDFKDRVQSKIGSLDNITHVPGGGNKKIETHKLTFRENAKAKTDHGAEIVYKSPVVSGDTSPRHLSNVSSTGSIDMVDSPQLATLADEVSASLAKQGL", "assay": "FRET or BRET; FLIM-FRET (clover donor lifetime) in living SH-SY5Y cells after hyperosmotic stress (sucrose); only pixels belonging to BAG2 condensates fitted", "data": [{"substance": "mClover2-BAG2 (Bcl2-associated athanogene 2, full length) (from UniProt O95816 1-211) (natural protein)", "values": [{"measurement": "fluorescence lifetime of the donor (FLIM-FRET), pixels of BAG2 condensates after stress", "result": 2.8, "unit": "ns"}]}]}
